According to patent publication US20200407440A1, “AMATOXIN ANTIBODY-DRUG CONJUGATES AND USES THEREOF” (Magenta Therapeutics, Inc., priority 2019, published 2020):

How the values were obtained:
human CD2 (human) [1] = biological target: human CD2 (human) (UniProt P06729); assay: flow cytometry of primary human T cells at day 5; competition with the staining anti-CD2 clone RPA-2.10 [left panel]
human CD2 (human) [2] = biological target: human CD2 (human) (UniProt P06729); assay: cell-based or functional assay

Chain of UniProt P06729 (P06729 25-351 limits assumed): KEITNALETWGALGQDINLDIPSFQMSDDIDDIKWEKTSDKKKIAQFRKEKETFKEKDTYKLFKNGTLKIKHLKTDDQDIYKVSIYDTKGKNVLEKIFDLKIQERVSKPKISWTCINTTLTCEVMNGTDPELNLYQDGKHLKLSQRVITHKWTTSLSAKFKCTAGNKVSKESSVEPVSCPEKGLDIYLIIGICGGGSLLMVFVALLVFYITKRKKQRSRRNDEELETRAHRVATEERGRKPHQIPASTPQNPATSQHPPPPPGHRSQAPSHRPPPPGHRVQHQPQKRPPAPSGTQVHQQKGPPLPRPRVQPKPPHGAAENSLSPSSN

Substance: CD2 RPA2.10 D265C/H435A ADC A (antibody)
- IC50 (read off the curve) (human CD2 (human) [1]): 100 pM
- % Efficacy, primary human T cell killing assay (human CD2 (human) [2]): 85.7%
- IC50 (pM), primary human T cell killing assay (5 days, flow cytometry) (human CD2 (human) [2]): 54 pM

Substance: CD2 RPA naked (antibody)
- IC50 (read off the curve) (human CD2 (human) [1]): 80 pM
